# Reference: article PMC12661925 (Structure (London, England : 1993), 2025)
# Like-named read-outs stand apart in the source and are kept apart here.
# T1: Cas1-2/3 integrase (StrepII-Cas1 + Cas2/3 fusion) (Pseudomonas aeruginosa PA14, UniProt Q02ML7;Q02ML8 1-324;1-1076)
# T1 sequence 1: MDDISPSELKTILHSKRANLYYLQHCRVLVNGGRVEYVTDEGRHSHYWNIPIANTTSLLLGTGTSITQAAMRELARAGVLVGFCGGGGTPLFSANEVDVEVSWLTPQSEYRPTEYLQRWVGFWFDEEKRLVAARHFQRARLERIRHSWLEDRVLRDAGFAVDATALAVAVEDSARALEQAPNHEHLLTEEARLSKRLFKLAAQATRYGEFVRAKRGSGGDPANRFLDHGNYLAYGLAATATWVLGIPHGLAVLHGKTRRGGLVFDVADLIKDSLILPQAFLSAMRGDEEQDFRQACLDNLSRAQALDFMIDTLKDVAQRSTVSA
# T1 sequence 2: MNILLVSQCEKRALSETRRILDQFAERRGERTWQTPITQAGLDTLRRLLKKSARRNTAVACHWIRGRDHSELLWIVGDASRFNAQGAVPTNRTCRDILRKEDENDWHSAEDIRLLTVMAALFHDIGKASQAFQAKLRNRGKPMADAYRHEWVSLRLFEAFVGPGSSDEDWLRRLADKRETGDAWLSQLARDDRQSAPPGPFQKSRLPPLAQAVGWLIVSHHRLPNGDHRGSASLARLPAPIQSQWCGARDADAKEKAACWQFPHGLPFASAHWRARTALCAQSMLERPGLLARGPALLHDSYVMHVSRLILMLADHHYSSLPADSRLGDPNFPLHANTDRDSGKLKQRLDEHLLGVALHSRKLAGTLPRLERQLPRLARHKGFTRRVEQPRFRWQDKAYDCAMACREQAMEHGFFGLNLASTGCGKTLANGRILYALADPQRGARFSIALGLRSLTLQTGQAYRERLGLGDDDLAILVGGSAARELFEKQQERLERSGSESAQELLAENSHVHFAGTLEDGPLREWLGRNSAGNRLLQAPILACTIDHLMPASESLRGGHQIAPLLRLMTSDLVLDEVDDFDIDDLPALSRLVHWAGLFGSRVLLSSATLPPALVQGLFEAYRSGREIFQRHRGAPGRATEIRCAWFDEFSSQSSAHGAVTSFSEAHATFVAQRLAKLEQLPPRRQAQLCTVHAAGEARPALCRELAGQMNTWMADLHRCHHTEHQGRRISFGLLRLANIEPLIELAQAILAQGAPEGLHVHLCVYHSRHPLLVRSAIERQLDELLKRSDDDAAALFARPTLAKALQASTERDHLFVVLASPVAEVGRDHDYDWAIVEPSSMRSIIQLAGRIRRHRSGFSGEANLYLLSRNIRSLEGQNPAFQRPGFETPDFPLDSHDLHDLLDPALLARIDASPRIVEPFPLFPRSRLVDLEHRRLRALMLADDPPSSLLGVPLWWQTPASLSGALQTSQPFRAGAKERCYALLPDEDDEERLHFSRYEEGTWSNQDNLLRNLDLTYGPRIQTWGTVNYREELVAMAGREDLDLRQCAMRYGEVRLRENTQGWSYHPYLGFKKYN
# Tests used:
# cryo-EM structure = target: the molecule itself; assay: cryo-EM structure
# [1] = target: T1, Cas1-2/3 integrase (StrepII-Cas1 + …); assay: cryo-EM
# [2] = target: T1, Cas1-2/3 integrase (StrepII-Cas1 + …); assay: cryo-EM; remark: listed apart in the source
Binder,binding result (cryo-EM structure),binding result [1],other results
"Cas2/3 fusion protein from the PA14 strain of Pseudomonas aeruginosa (type I-F), untagged (enzyme, Pseudomonas aeruginosa (strain PA14)) MNILLVSQCEKRALSETRRILDQFAERRGERTWQTPITQAGLDTLRRLLKKSARRNTAVACHWIRGRDHSELLWIVGDASRFNAQGAVPTNRTCRDILRKEDENDWHSAEDIRLLTVMAALFHDIGKASQAFQAKLRNRGKPMADAYRHEWVSLRLFEAFVGPGSSDEDWLRRLADKRETGDAWLSQLARDDRQSAPPGPFQKSRLPPLAQAVGWLIVSHHRLPNGDHRGSASLARLPAPIQSQWCGARDADAKEKAACWQFPHGLPFASAHWRARTALCAQSMLERPGLLARGPALLHDSYVMHVSRLILMLADHHYSSLPADSRLGDPNFPLHANTDRDSGKLKQRLDEHLLGVALHSRKLAGTLPRLERQLPRLARHKGFTRRVEQPRFRWQDKAYDCAMACREQAMEHGFFGLNLASTGCGKTLANGRILYALADPQRGARFSIALGLRSLTLQTGQAYRERLGLGDDDLAILVGGSAARELFEKQQERLERSGSESAQELLAENSHVHFAGTLEDGPLREWLGRNSAGNRLLQAPILACTIDHLMPASESLRGGHQIAPLLRLMTSDLVLDEVDDFDIDDLPALSRLVHWAGLFGSRVLLSSATLPPALVQGLFEAYRSGREIFQRHRGAPGRATEIRCAWFDEFSSQSSAHGAVTSFSEAHATFVAQRLAKLEQLPPRRQAQLCTVHAAGEARPALCRELAGQMNTWMADLHRCHHTEHQGRRISFGLLRLANIEPLIELAQAILAQGAPEGLHVHLCVYHSRHPLLVRSAIERQLDELLKRSDDDAAALFARPTLAKALQASTERDHLFVVLASPVAEVGRDHDYDWAIVEPSSMRSIIQLAGRIRRHRSGFSGEANLYLLSRNIRSLEGQNPAFQRPGFETPDFPLDSHDLHDLLDPALLARIDASPRIVEPFPLFPRSRLVDLEHRRLRALMLADDPPSSLLGVPLWWQTPASLSGALQTSQPFRAGAKERCYALLPDEDDEERLHFSRYEEGTWSNQDNLLRNLDLTYGPRIQTWGTVNYREELVAMAGREDLDLRQCAMRYGEVRLRENTQGWSYHPYLGFKKYN",binds,–,–
Figures 4 and 5 foreign DNA without PAM (32/32 nt) (dsDNA) DNA 1: TACATGCTCTAGCAAAACGACTTGCACAACGA DNA 2: ATTAAGTGCAAGTCGTTTTGCTAGAGCTACAT,–,binds,–
"Cas1 from the PA14 strain of Pseudomonas aeruginosa (type I-F), StrepII-tagged (enzyme, Pseudomonas aeruginosa (strain PA14)) MDDISPSELKTILHSKRANLYYLQHCRVLVNGGRVEYVTDEGRHSHYWNIPIANTTSLLLGTGTSITQAAMRELARAGVLVGFCGGGGTPLFSANEVDVEVSWLTPQSEYRPTEYLQRWVGFWFDEEKRLVAARHFQRARLERIRHSWLEDRVLRDAGFAVDATALAVAVEDSARALEQAPNHEHLLTEEARLSKRLFKLAAQATRYGEFVRAKRGSGGDPANRFLDHGNYLAYGLAATATWVLGIPHGLAVLHGKTRRGGLVFDVADLIKDSLILPQAFLSAMRGDEEQDFRQACLDNLSRAQALDFMIDTLKDVAQRSTVSA",binds,–,–
"Figure 3 foreign DNA, PAM on one strand (34/32 nt) (dsDNA) DNA 1: AAAAACCTGGACTACTACAACCTTCGCTTTTTGG DNA 2: TTTTTGCGAAGGTTGTAGTAGTCCAGGAAAAA",–,–,binding result [2]: binds
Figure 4 foreign DNA with PAM (34/34 nt) (dsDNA) DNA 1: TACATGCTCTAGCAAAACGACTTGCACAACGAGG DNA 2: CCATTAAGTGCAAGTCGTTTTGCTAGAGCTACAT,–,binds,–
